According to article PMC4005679, “In vitro assembly and activity of an archaeal CRISPR-Cas type I-A Cascade interference complex” (Nucleic Acids Research, 2014):

B1: crRNA 5.13 (ssRNA)
RNA: AUUGAAAGAUCGCUUGUCCAACCGGGCUCCUCUAUAUGUCGUCAUUAGCUUAGA
modifications: 5'-OH from hammerhead cleavage before labeling
B2: crRNA 5.2 (ssRNA)
RNA: AUUGAAAGCGUUGAUGCGGCCGCGACUGGCUGACUCAGCUAUUACGUUGA
modifications: 5'-OH from hammerhead cleavage before labeling

Assays:
[1] = target: T1, Csa5;Cas7;Cas5a;Cas3';Cas3'';Cas8a2 (Thermoproteus tenax Kra1;Thermoproteus …, UniProt G4RJZ0;G4RJZ1;G4RJZ2;G4RJZ3;G4RJZ4;G4RJZ5 1-130;1-329;1-226;1-566;1-226;1-361, |||||); experiment: EMSA; yeast RNA competitor; Ca2+ during reconstitution; 0.125-2 uM Cascade; 100 mM HEPES/KOH pH 7, 100 mM NaCl, 10 mM beta-mercaptoethanol, 50 ng yeast RNA, 30 min at 70 C (Cascade; 6% native TBE-PAGE); Cas7 alone without yeast RNA at 80 C, agarose gel; 2-4 nM labeled crRNA; settings: protein: recombinant;recombinant;recombinant;recombinant;recombinant;recombinant; tags: untagged;His-SUMO tag cleaved off;;;;; label: 5'-32P; single strand
[2] = target: T1, Csa5;Cas7;Cas5a;Cas3';Cas3'';Cas8a2; experiment: EMSA; yeast RNA competitor; Ca2+ during reconstitution; 0.125-5 uM Cascade; affinity similar to crRNA 5.13; 100 mM HEPES/KOH pH 7, 100 mM NaCl, 10 mM beta-mercaptoethanol, 50 ng yeast RNA, 30 min at 70 C (Cascade; 6% native TBE-PAGE); Cas7 alone without yeast RNA at 80 C, agarose gel; 2-4 nM labeled crRNA; settings: protein: recombinant;recombinant;recombinant;recombinant;recombinant;recombinant; tags: untagged;His-SUMO tag cleaved off;;;;; label: 5'-32P (EMSA); unlabeled in SEC; single strand

Row | Binder | binding result [1] | binding result [2]
1 | B1 | binds | 
2 | B2 |  | binds
